# In US20120225060A1 (APEXIGEN, published 2012):
# Read-outs that look alike come from different tables or passages of the source.
# T1: recombinant human IL-6R-extracellular domain (ECD) (human, UniProt P08887 20-365)
# T1 construct: extracellular domain; also called IL-6R-ECD
# T1 sequence (looked up): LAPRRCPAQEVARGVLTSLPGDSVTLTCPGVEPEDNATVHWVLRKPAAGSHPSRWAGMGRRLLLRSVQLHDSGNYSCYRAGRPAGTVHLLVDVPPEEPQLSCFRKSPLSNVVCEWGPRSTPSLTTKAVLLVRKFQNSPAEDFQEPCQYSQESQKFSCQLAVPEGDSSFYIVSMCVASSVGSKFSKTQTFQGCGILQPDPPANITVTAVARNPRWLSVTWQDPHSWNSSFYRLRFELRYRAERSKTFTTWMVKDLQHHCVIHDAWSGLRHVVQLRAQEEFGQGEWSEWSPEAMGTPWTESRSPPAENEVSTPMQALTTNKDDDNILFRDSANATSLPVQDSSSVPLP
# T2: IL-6R on human myeloma U266B1 cells (human, UniProt P08887 20-468)
# T2 sequence (looked up): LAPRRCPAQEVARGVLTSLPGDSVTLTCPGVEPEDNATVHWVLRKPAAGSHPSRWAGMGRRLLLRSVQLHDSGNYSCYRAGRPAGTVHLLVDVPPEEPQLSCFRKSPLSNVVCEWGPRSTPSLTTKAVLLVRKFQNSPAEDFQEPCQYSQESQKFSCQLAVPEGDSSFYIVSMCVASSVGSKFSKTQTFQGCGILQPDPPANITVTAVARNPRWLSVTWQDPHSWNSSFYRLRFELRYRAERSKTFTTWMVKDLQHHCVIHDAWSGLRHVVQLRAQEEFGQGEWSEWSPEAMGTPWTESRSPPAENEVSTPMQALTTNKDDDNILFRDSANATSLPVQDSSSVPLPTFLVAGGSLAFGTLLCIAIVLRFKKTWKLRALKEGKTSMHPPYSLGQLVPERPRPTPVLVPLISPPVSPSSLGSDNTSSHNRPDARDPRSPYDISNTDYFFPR
# Assays:
# [1] = biological target: T1, recombinant human IL-6R-extracellular …; experiment: SPR
# [2] = biological target: T1, recombinant human IL-6R-extracellular …; experiment: direct ELISA on IL-6R
# [3] = biological target: T2, IL-6R on human myeloma U266B1 cells; experiment: cell-based or functional assay
# [4] = biological target: T2, IL-6R on human myeloma U266B1 cells; experiment: FACS binding to IL-6R on U266B1 cells
# [5] = biological target: T1, recombinant human IL-6R-extracellular …; experiment: receptor-ligand ELISA, blocking of IL-6 binding to IL-6R
# [6] = biological target: T2, IL-6R on human myeloma U266B1 cells; experiment: cell-based or functional assay; remark: listed apart in the source
# [7] = biological target: T1, recombinant human IL-6R-extracellular …; experiment: direct ELISA on IL-6R; remark: listed apart in the source
# [8] = biological target: T2, IL-6R on human myeloma U266B1 cells; experiment: cell-based or functional assay; remark: listed apart in the source
# [9] = biological target: IL-6R on TF-1 cells (Homo sapiens); experiment: cell-based or functional assay
# [10] = biological target: T2, IL-6R on human myeloma U266B1 cells; experiment: FACS binding to IL-6R on U266B1 cells; remark: listed apart in the source
# [11] = biological target: T1, recombinant human IL-6R-extracellular …; experiment: receptor-ligand ELISA, blocking of IL-6 binding to IL-6R; remark: listed apart in the source
# [12] = biological target: T1, recombinant human IL-6R-extracellular …; experiment: receptor-ligand ELISA: blocking of IL-6 binding to IL-6R
# [13] = biological target: T1, recombinant human IL-6R-extracellular …; experiment: receptor-ligand ELISA, reference Tocilizumab
# [14] = biological target: T2, IL-6R on human myeloma U266B1 cells; experiment: FACS on U266B1 cells
Kd [1] [nM],koff [1] [s⁻¹],kon [1] [M⁻¹ s⁻¹],EC50 [2] [µg/mL],TF-1 proliferation IC50 [3] [µg/mL],EC50 [4] [µg/mL],IC50 [5] [µg/mL],"inhibition of STAT3 phosphorylation, fold as compared to tocilizumab (hPM-1) [6] [fold]",EC50 [7] [µg/mL],TF-1 proliferation IC50 [8] [µg/mL],"IC50 (read off the curve), IL-6 mediated TF-1 proliferation [9] [µg/mL]",EC50 [10] [µg/mL],IC50 [11] [µg/mL],IC50 (read off the curve) [12] [µg/mL],fold potency against Tocilizumab in ligand-receptor binding assays [13] [fold],EC50 (read off the curve) [14] [µg/mL],Binder
0.526,0.00031,589000,,,,,,0.0216,0.181,,0.145,0.39,~0.2,6,,"humanized clone #36 anti-IL-6R antibody (antibody, human IgG1, kappa, V domains shown, Humanized VH cloned into human IgG1 CH vector, humanized VK into human CK vector; also called Humanized 36; humanized 36) VH: EVQLVESGGGLVQPGGSLRLSCAVSGFSLSSYYMSWVRQAPGKGLEWIGITTTSTNTFYASWAKGRFTISKDSSKNTVYLQMNSPRAEDTAVYFCARYGGNSAYYAFSLWGQGTLVTVSS VL: DIQMTQSPSSLSASVGDRVTISCQSSQSVYNNNYLAWFQQKPGKPPKLLIYGASNLASGVPSRFSGSGSGTQFTLTISSLQPEDVATYYCQGYYNGVIFVFGGGTKVEIKR"
1.17,0.000463,393000,0.03,0.02,0.0687,0.8,,~0.03,0.154,,0.164,0.288,~0.3,,~0.2,"clone 51 rabbit anti-IL-6R antibody (antibody, V domains shown) VH: QSVEESGGRLVTPGTPLTLTCTASGFDISSYSLQWVRQSPGKGLEYIGFIRPDGSAHYATWAKGRFTISKTSSTTVDLKMTSLTTEDTATYFCARDDISSDYFPNLWGPGTLVTVSS VL: QVLTQTPSPVSAAVGGTVTISCQASESVYNKNNLAWYQQKPGQPPKLLIYDASDLASGVSSRFKGSGSGTQFTLTISDLECADAATYYCAGGGSGNVYDFGGGTEVVVK"
1.29,0.0004,311000,,,,,,0.0169,1.06,,0.356,0.26,,,,"humanized clone #51 anti-IL-6R antibody (antibody, human IgG1, kappa, V domains shown, Humanized VH cloned into human IgG1 CH vector, humanized VK into human CK vector; also called Humanized 51; humanized 51) VH: EVQLVESGGGLVQPGGSLRLSCAASGFDISSYSLQWVRQSPGKGLEYIGFIRPDGSAHYATWAKGRFTISKDSSKNTVYLQMNSLRAEDTAVYFCARDDISSDYFPNLWGPGTLVTVSS VL: DIQMTQSPSTLSASVGDRVTISCQASESVYNKNNLAWYQQKPGKPPKLLIYDASDLASGVPSRFSGSGSGTQFTLTISSLQPDDFATYYCAGGGSGNVYDFGGGTKVEIKR"
,,,0.02,0.02,0.0573,1.36,,,,,,,,,,"clone 40 rabbit anti-IL-6R antibody (antibody, V domains shown) VH: QSLEESGGRLVSPGGSLTLTCTVSGVDLNTYAMGWVRQAPGKGLECIGVILGSGTTYYANWAKGRFTISKTSSTTVDLKMTNLTAADTATYFCAGDRYGSLEEVITPYFDLWGPGILVTVSS VL: DVVMTQTPASVEAAVGGTVTIKCQASQNIYNNLAWYQQKPAQPPKLLIYSASTLESGVPSRFKGSGSGTGYTLTISDLECADAATYYCQSAYYTSYIDHNVFGGGTEVVVE"
,,,0.04,0.03,0.0961,0.34,,,,,,,,,,"clone 42 rabbit anti-IL-6R antibody (antibody, V domains shown) VH: QSVEESGGRLVTPGTPLTLTCTVSGFSLSNYWMSWVRQAPGKGLEWIAFIGGGNTFYASWAKGRFTISKTSSTTVDLSMPSPTTEDTATYFCARGYGAPGYDLWGQGTLVTVSL VL: AIVMTQTPSSKSVPVGDTVTINCQASESVYTNNRLSWYQQKPGQPPKLLIYYASTLASGVPSRFKGSGSGTQFTLTISDVVCDNAATYYCVGYKSSDGDGTAFGGGTEVVVK"

# Second part, the binder before the results:
Binder,Kd [1] [nM],koff [1] [s⁻¹],kon [1] [M⁻¹ s⁻¹],EC50 [2] [µg/mL],TF-1 proliferation IC50 [3] [µg/mL],EC50 [4] [µg/mL],IC50 [5] [µg/mL],"inhibition of STAT3 phosphorylation, fold as compared to tocilizumab (hPM-1) [6] [fold]",EC50 [7] [µg/mL],TF-1 proliferation IC50 [8] [µg/mL],"IC50 (read off the curve), IL-6 mediated TF-1 proliferation [9] [µg/mL]",EC50 [10] [µg/mL],IC50 [11] [µg/mL],IC50 (read off the curve) [12] [µg/mL],fold potency against Tocilizumab in ligand-receptor binding assays [13] [fold],EC50 (read off the curve) [14] [µg/mL]
"clone 5 rabbit anti-IL-6R antibody (antibody, V domains shown) VH: QSLEESGGRLVTPGTPLTLTCTVSGIDLSRYWMSWVRQAPGKGLEWIGMISGGNTWYASWAKGRFTISKTSTTVDLKITSPTTEDTATYFCARGIDTGIATTFNLWGPGTLVTVSS VL: AQVLTQTPSSVSAAVGGTVTISCQSSQSVYNNNRLSWFQQKPGQPPKLLIYYASTLASGVPSRFKGSGSGTQFTLTISDLECDDAATYYCQGYYSGVINVFGGGTEVVVK",0.523,0.000279,533000,0.04,0.03,0.0261,0.38,,,,,,,,,
"clone 23 rabbit anti-IL-6R antibody (antibody, V domains shown) VH: QSLEESGGRLVTPGTPLTLTCTVSGIDLSRYWMSWVRQAPGKGLEWIGMISGGNTWYASWAKGRFTISKTSTTVDLKITSPTTEDTATYFCARGIDTGIATTFNLWGPGTLVTVSS VL: AQVLTQTPSSVSTAVGGTVTISCQSSQNVYNNNRLSWFQQKPGQPPKLLIYYTSTLPSGVPSRFKGSGSGTQFTLTISDLECDDAATYYCQGYYSGVINVFGGGTEVVVK",,,,0.07,0.07,0.0263,0.38,,,,,,,,,
"clone 37 rabbit anti-IL-6R antibody (antibody, V domains shown) VH: QSLEESGGRLVTPGTPLTLTCTVSGIDLSRYWMSWVRQAPGKGLEWIGMISGGNTWYASWAKGRFTISGTSTTVDLKIISPTTADTATYFCARGIDTGIATTFNLWGPGTLVTVSS VL: AQVLTQTPSSVSAAVGGTVTISCQSSQSVYSNNRLSWFQQKPGQPPKLLIYYTSTLASGVPSRFKGSGSGTQFTLTISDLECDDAATYYCQGYYSGVINVFGGGTEVVVK",,,,0.05,0.09,0.0331,0.39,,,,,,,,,
"clone 21 rabbit anti-IL-6R antibody (antibody, V domains shown) VH: QSVEESGGRLVTPGTPLTLTCTVSGIDLSNYYMSWVRQAPGKGLEWIGISSTTSNTFYASWAKGRFTISKTSATVDLKITSPTTEDTATYFCARYGGNSAYYAFSLWGQGTLVTVSS VL: AVVLTQTPSPVSAAVGGTVTINCQSSQSVYNNNYLAWYQQKPGQPPKLLIYGASNLASGVPSRFKGSGSGTQFTLTISEVQCDDAATYYCQGYYNGVIFVFGGGTEVVVK",,,,0.04,0.11,0.0326,0.47,,,,,,,,,
"clone 36 rabbit anti-IL-6R antibody (antibody, V domains shown) VH: QSVEESGGRLVTPGTPLTLTCTVSGFSLSSYYMSWVRQAPGKGLEWIGITTTSTNTFYASWAKGRFTISKTSATVDLKITSPTIEDTATYFCARYGGNSAYYAFSLWGQGTLVTVSS VL: QVLTQTASSVSAAVGGTVTISCQSSQSVYNNNYLAWFQQKPGQPPKLLIYGASNLASGVPSRFKGSGSGTQFTLTISDLECDNAATYYCQGYYNGVIFVFGGGTEVVVK",0.635,0.000342,538000,0.02,0.04,0.0203,0.23,> 10,0.0595,0.163,~0.1,0.0776,0.235,~0.2,,
